{"source": "paper doi:10.1101/2020.09.30.318972", "about": "(bioRxiv, 2020)", "binders": {"B1": {"name": "LY-CoV555 (antibody, V domains shown)", "VH": "QVQLVQSGAEVKKPGSSVKVSCKASGGTFSNYAISWVRQAPGQGLEWMGRIIPILGIANYAQKFQGRVTITADKSTSTAYMELSSLRSEDTAVYYCARGYYEARHYYYYYAMDVWGQGTAVTVSS", "VL": "not shown"}, "B2": {"name": "LY-CoV555 Fab (Fab, V domains shown)", "VH": "B1 VH", "VL": "not shown"}}, "key": {"[1]": {"molecular_target": "T1, SARS-CoV-2 spike protein receptor-binding domain (SARS-CoV-2, UniProt P0DTC2)", "experiment": "SPR"}, "[2]": {"molecular_target": "T1, SARS-CoV-2 spike protein …", "experiment": "crystal structure"}}}
{"binder": "B1", "values": [{"measurement": "binding result", "setting": "[1]", "result": "binds"}]}
{"binder": "B2", "values": [{"measurement": "binding result", "setting": "[2]", "result": "binds"}]}
